The target of assay [1] is T1, extracellular domain of human B7-H2 (R&D Systems, 165-B7) (human, UniProt O75144 19-256).
T1 construct: extracellular domain; Bought
T1 sequence (looked up): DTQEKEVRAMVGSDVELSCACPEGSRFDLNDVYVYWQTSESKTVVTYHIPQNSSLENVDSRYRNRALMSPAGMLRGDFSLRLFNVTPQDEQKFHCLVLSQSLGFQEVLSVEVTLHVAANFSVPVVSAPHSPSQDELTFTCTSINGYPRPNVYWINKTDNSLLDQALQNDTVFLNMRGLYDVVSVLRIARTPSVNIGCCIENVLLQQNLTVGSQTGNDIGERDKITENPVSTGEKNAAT
The experiment in a line: ELISA, biotinylated IgG1-TM on coated ECD. How it is done: ELISAs were performed to determine the cross-reactivity of the anti-B7-H1 IgG1-TM antibodies for other immune co-modulatory molecules. […] Murine cross reactivity was also investigated by coating the ECD of murine B7-H1 (R&D Systems, 1019-B7). Biotinylated anti-B7-H1 IgG1-TM diluted at 100 nM in PBS containing 3% dried milk powder, were incubated at room temperature for 2 h to allow binding. Bound biotinylated IgGs were detected with europium N1-labelled streptavidin (Perkin Elmer, 1244-360) at 0.2 ug/mL. […] Primary antibodies were incubated at 5 ug/mL in PBS containing 3% dried milk powder for 2 h at room temperature. Detection was carried out by incubating the secondary antibody anti-mouse IgG Peroxidase conjugate (Sigma, A2554) or anti-rat IgG Peroxidase conjugate (Sigma, A5795) diluted 1:5000 in PBS containing 3% dried milk powder for 1 h at room temperature and subsequent addition of TMB (Sigma, T0440). […] Non-specific binding was determined using wells coated with the IgG1 isotype control at 5 ug/mL. Cross reactivities were calculated at a percent of the specific binding to the antigen relative to human B7-H1.

Another assay deals with T2, B7H1_F19A (human, UniProt Q9NZQ7 19-238).
T2 construct: range 19-238; also called human B7-H1 extracellular domain mutant F19A
Put plainly: HTRF competition: untagged B7-H1 sample against HIS FLAG tagged human B7-H1 for labelled antibody. The protocol: (§1) The HTRF® competition assays measured the binding of anti-B7-H1 antibody to HIS FLAG tagged B7-H1. Titration of non tagged B7-H1 samples, prepared as described above, will compete with HIS FLAG tagged B7-H1 for binding to anti-B7-H1 antibody, leading to a reduction in assay signal. […] 10 μl of B7-H1 sample was added to a 384 well low volume assay plate (Corning 3673). […] Assay plates were incubated for 4 hours at room temperature prior to reading time resolved fluorescence at 620 nm and 665 nm emission wavelengths using an EnVision plate reader (Perkin Elmer).

In the next assay the target is T3, B7H1_F19G (human, UniProt Q9NZQ7 19-238).
T3 construct: range 19-238; also called human B7-H1 extracellular domain mutant F19G
The description is as above. The protocol:
as §1

In a further assay the target is T4, B7H1_F19S (human, UniProt Q9NZQ7 19-238).
T4 construct: range 19-238; also called human B7-H1 extracellular domain mutant F19S
The description is as above. The protocol:
as §1

Another assay addresses T5, B7H1_T20A (human, UniProt Q9NZQ7 19-238).
T5 construct: range 19-238; also called human B7-H1 extracellular domain mutant T20A
Described as above. The protocol:
as §1

In the next assay the target is T6, B7H1_T20V (human, UniProt Q9NZQ7 19-238).
T6 construct: range 19-238; also called human B7-H1 extracellular domain mutant T20V
The description is as above. How it is done:
as §1

A further assay has as its target T7, B7H1_T20D (human, UniProt Q9NZQ7 19-238).
T7 construct: range 19-238; also called human B7-H1 extracellular domain mutant T20D
The assay is described as above. How it is done:
as §1

The target in another assay is T8, B7H1_R113Y (human, UniProt Q9NZQ7 19-238).
T8 construct: range 19-238; also called human B7-H1 extracellular domain mutant R113Y
The description is as above. The protocol:
as §1

Another assay deals with T9, B7H1_R113L (human, UniProt Q9NZQ7 19-238).
T9 construct: range 19-238; also called human B7-H1 extracellular domain mutant R113L
The description is as above. How it is done:
as §1

A further assay deals with T10, B7H1_D122E (human, UniProt Q9NZQ7 19-238).
T10 construct: range 19-238; also called B7H1 D122E mutant
The description is as above. The protocol:
as §1

The next assay addresses T11, B7H1_D122N (human, UniProt Q9NZQ7 19-238).
T11 construct: range 19-238; also called human B7-H1 extracellular domain mutant D122N
The assay is described as above. The protocol: as §1

Assay [2] deals with T12, recombinant monomeric cynomologus B7-H1 FlagHis10 extracellular domain (cynomologus).
T12 construct: extracellular domain; also called CYNO B7H1
The experiment in a line: SPR (BIAcore T100), IgG captured via protein G, monomeric cynomologus B7-H1 ECD as analyte, 25 °C, 1:1 model. How it is done:
The binding affinity and kinetic parameters of anti-B7-H1 antibodies in the IgG1-TM format to monomeric human and cynomologus B7-H1 were determined by surface plasmon resonance using a BIAcore T100 instrument (BIAcore, Uppsala, Sweden). In brief, experiments were performed at 25° C. using HBS-EP buffer (10 mM HEPES, 150 mM NaCl, 3 mM EDTA, 0.05% v/v surfactant P20) as running buffer. IgGs were affinity captured on the surface of a CM5 sensor chip (BIAcore) via protein G, which was amine coupled onto the CM5 surface to achieve the density of ˜500 Response Units (RU), according to the manufacturer's instructions (BIAapplications Handbook, BIAcore). Recombinant monomeric human or cynomologus B7-H1 FlagHis₁₀ extracellular domains (ECDs) were used as analytes. […] All measurements were baseline corrected by subtracting the sensorgram obtained with the control (activated-deactivated) flow cell, as well as double referenced with blank (zero analyte concentration) injections. Data were analyzed using the T-100 BIAevaluation software package and fitted to a simple 1:1 Langmuir binding model with local Rₘₐₓ and bulk refractive index set to 0. Data were calculated from at least two independent experiments. Mass transport effects were limited by keeping the level of affinity-captured IgGs below 250 RU.

T10 sequence (Q9NZQ7 19-238 D122E limits assumed): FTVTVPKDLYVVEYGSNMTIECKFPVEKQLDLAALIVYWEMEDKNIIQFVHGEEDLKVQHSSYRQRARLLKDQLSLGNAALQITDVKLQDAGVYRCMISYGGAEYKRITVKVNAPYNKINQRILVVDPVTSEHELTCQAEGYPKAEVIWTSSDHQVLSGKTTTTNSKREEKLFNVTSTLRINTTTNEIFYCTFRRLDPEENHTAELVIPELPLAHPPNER
T3 sequence (Q9NZQ7 19-238 F19G limits assumed): as the sequence (Q9NZQ7 19-238 D122E limits assumed) above, with F1G, E104D counted along it
T9 sequence (Q9NZQ7 19-238 R113L limits assumed): as the sequence (Q9NZQ7 19-238 D122E limits assumed) above, with R95L, E104D counted along it
T7 sequence (Q9NZQ7 19-238 T20D limits assumed): as the sequence (Q9NZQ7 19-238 D122E limits assumed) above, with T2D, E104D counted along it
T8 sequence (Q9NZQ7 19-238 R113Y limits assumed): as the sequence (Q9NZQ7 19-238 D122E limits assumed) above, with R95Y, E104D counted along it
T2 sequence (Q9NZQ7 19-238 F19A limits assumed): as the sequence (Q9NZQ7 19-238 D122E limits assumed) above, with F1A, E104D counted along it
T6 sequence (Q9NZQ7 19-238 T20V limits assumed): as the sequence (Q9NZQ7 19-238 D122E limits assumed) above, with T2V, E104D counted along it
T11 sequence (Q9NZQ7 19-238 D122N limits assumed): as the sequence (Q9NZQ7 19-238 D122E limits assumed) above, with E104N counted along it
T4 sequence (Q9NZQ7 19-238 F19S limits assumed): as the sequence (Q9NZQ7 19-238 D122E limits assumed) above, with F1S, E104D counted along it
T5 sequence (Q9NZQ7 19-238 T20A limits assumed): as the sequence (Q9NZQ7 19-238 D122E limits assumed) above, with T2A, E104D counted along it

B1: 2.7A4OPT (antibody, V domains shown)
VH: EVQLVESGGGLVKPGGSLRLSCAASGFTFSTYSMNWVRQAPGKGLEWVSSISSSGDYIYYADSVKGRFTISRDNAKNSLYLQMNSLRAEDTAVYYCARDLVTSMVAFDYWGQGTLVTVSS
VL: SYELTQPPSVSVSPGQTARITCSGDALPQKYVFWYQQKSGQAPVLVIYEDSKRPSGIPERFSGSSSGTMATLTISGAQVEDEADYYCYSTDRSGNHRVFGGGTKLTVL
notes: Germlined variable domains; human IgG1-TM (L234F, L235E, P331S), lambda; also called 2.7A4OPT IgG1-TM
Consider B1, for which the binding result is “no binding (tested: 100 nM)” in assay [1]; “no binding” in the assay with B7H1_F19A; “no binding” in the assay with B7H1_F19G; “no binding” with B7H1_F19S; “no binding” in the assay with B7H1_T20A; “no binding” with B7H1_T20V. Moreover, the binding result with B7H1_T20D, with B7H1_R113Y, with B7H1_R113L, with B7H1_D122E and with B7H1_D122N was “no binding” throughout. Also, the Kd in assay [2] amounted to 0.835 nM. Also, the koff in assay [2] was 0.0011 s⁻¹. In addition, the kon in assay [2] stood at 1.31e+06 M⁻¹ s⁻¹.
